Experiment in all cases: purified protein
Substrate in data set [1]: C[C@H](O)CSCCS(=O)(=O)O
The following applies: oxidation, 10 mM NAD+, pH 7.5, 30 °C.

Substrate in data set [2]: CC(=O)CSCCS(=O)(=O)O
Particulars: reduction, 0.17 mM NADH, pH 7.5, 30 °C.

Substrate in data set [3]: C[C@@H](O)CSCCS(=O)(=O)O
The following applies: oxidation, 10 mM NAD+, pH 7.5, 30 °C.

Substrate in data set [4]: C[C@H](O)CSCCS(=O)(=O)O
It counts as biochemical, Xanthobacter versatilis. Particulars: oxidation, 10 mM NAD+, pH 7.5, 30 °C.

Substrate in data set [5]: CC(=O)CSCCS(=O)(=O)O
It is filed as biochemical, Xanthobacter versatilis. The following applies: reduction, 0.17 mM NADH, pH 7.5, 30 °C.

Substrate in data set [6]: C[C@@H](O)CSCCS(=O)(=O)O
It counts as biochemical, Xanthobacter versatilis. The following applies: oxidation, 10 mM NAD+, pH 7.5, 30 °C.

Substrate in data set [7]: O=S(=O)(O)CCSCCO
It counts as biochemical, Xanthobacter versatilis. Particulars: oxidation, 5 mM NAD+, pH 7.5, 30 °C.

B1: rS-HPCDH1 (Xanthobacter versatilis) (protein)
chain: MLDAEVIAITGGAAGIGLAVAHAAIRAGARVALIDRDGACAQRAAAEFGAAAWGVGADVTDEAAITAAMAGAQRALGPLTGLVNNAGIAGFGSVHATEVETWSRIMAVNVTGTFLASKAALFGMLERGRGAIVNFGSVAGLVGIPTMAAYCAAKGAVVNLTRQMAADYSGRGIRVNVVCPGTVAGTDMGRQLLGTDCDPELEARRLAKYPMGRFGTPEDIAEAAVFLLSTKAAFVTGSVLAVDGGMTAI
Broadly, the Km is the substrate concentration at which the rate is half of its maximum. In general, kcat refers to the number of substrate molecules converted per active site and unit of time at saturation. As a reminder, the kcat/Km is the second-order rate constant that governs catalysis at low substrate concentration. With B1, in “purified protein [1]”, the Km stood at 220 ± 20 µM, the kcat came out at 28 s⁻¹ and the kcat/Km came out at 130000 M⁻¹ s⁻¹. In the data set “purified protein [2]”, the Km turned out to be 240 ± 10 µM, the kcat amounted to 20 s⁻¹ and the kcat/Km was found to be 83000 M⁻¹ s⁻¹. Further, in “purified protein [3]”, the Michaelis-Menten constant (Km) is 5200 ± 300 µM, the kcat stood at 2.4 s⁻¹ and the kcat/Km worked out at 460 M⁻¹ s⁻¹.

B2: rR-HPCDH1 (Xanthobacter versatilis) (protein)
chain: SRVAIVTGASSGNGLAIATRFLARGDRVAALDLSAETLEETARTHWHAYADKVLRVRADVADEGDVNAAIAATMEQFGAIDVLVNNAGITGNSEAGVLHTTPVEQFDKVMAVNVRGIFLGCRAVLPHMLLQGAGVIVNIASVASLVAFPGRSAYTTSKGAVLQLTKSVAVDYAGSGIRCNAVCPGMIETPMTQWRLDQPELRDQVLARIPQKEIGTAAQVADAVMFLAGEDATYVNGAALVMDGAYTAI
Consider B2, for which the Km was found to be 220 ± 70 µM in the data set “purified protein [4]”, 68 ± 10 µM in “purified protein [5]”, 96 ± 7 µM in the data set “purified protein [6]” and 960 ± 100 µM in “purified protein [7]”. For the same protein, the turnover number (kcat) in “purified protein [4]” was determined as 0.12 ± 0.01 s⁻¹; in “purified protein [6]” it was 48 ± 1 s⁻¹. Besides, the kcat/Km was determined as 530 M⁻¹ s⁻¹ in “purified protein [4]” and 500000 M⁻¹ s⁻¹ in the data set “purified protein [6]”.

(Values after publication PMC2858264.)
